Values quoted from earlier work in article PMC6314896 (Chembiochem : a European journal of chemical biology, 2018).

System: trypsin
Conditions: both toxins under the same conditions

| Substance | stability to trypsin (in words) |
| --- | --- |
| ProTx-II | completely stable |
| ProTx-I | degraded rapidly |
